Test results as given in patent publication US12202907B2, “Nucleic acids encoding and methods of producing proteins comprising antibody chains” (Innate Pharma, priority 2018, dated 2025).
Entries after “also recorded” stand apart in the source; their conditions may differ.

Experiments:
[1] = biological target: T1, Human CD39-L3 (NTPDase3, ENTPD3) (Homo sapiens, UniProt O75355); test: ELISA titration on CD39-L3; assay type: binding
T1 sequence (O75355 1-529): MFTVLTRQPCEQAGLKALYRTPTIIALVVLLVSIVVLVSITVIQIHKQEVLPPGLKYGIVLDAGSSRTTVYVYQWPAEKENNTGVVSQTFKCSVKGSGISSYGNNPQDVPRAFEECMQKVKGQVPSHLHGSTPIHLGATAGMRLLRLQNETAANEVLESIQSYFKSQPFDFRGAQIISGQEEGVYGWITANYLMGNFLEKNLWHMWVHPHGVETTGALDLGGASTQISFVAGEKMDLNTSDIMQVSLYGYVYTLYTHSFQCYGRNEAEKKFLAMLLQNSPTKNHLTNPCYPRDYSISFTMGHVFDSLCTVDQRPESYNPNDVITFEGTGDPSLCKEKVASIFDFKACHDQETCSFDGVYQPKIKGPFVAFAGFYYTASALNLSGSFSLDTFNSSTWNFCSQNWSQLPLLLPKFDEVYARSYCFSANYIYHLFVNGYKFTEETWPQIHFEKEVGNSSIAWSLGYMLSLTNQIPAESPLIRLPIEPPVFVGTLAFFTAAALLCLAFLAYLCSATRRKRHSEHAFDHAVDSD
Procedure: Antibody I-394 was tested for binding to recombinant human CD39 isoforms (Rec-huCD39 isoforms) having amino acid sequences shown below were coated in 96-well plate in PBS 1X at 500 ng/ml or 1 μg/ml at 4° C. overnight. Wells were washed in TBS Tween® 20 (polysorbate 20), and further saturated 2H at RT in TBS Blocking buffer. Dose range concentration of primary antibody was incubated in TBS blocking buffer for 2 h at RT. Wells were washed in TBS Tween® 20 (polysorbate 20). […] Optical density was measured on Enspire™ at OD=450.

allogenic CD4 T cells = test: Mixed lymphocytes reaction (MLR) with ATP-activated DC; assay type: cell-based, human; settings: MoDC activated in presence of ATP and antibody
Procedure: Briefly, human monocytes were purified from human healthy blood and differentiated into MoDC in presence of GM-CSF and IL-4 during 6 days. Then MoDC were activated in presence of ATP (Sigma, 0.25-1 mM) during 24 hours and DC activation were assessed by analyzing CD80, CD83 and HLA-DR expression by flow cytometry. In some cases, MoDC were preincubated for 1 hour in presence of CD39 inhibitor: […] (Tocris, 250 μM), CD73 inhibitor: APCP (Tocris 50 μM), anti-CD39 blocking antibody I-394 or BY40 (for BY40 see WO2009/095478), or anti-CD73 blocking antibodies. LPS (Invivogen, 10 ng/ml) was used as positive control. To assess resulting effect of ATP-mediated DC activation on CD4 T cells activation, ATP-activated DC were washed and then incubated with allogenic CD4 T cells (ratio 1 MoDC/4 T cells) for a mixed lymphocytes reaction (MLR) during 5 days. T cells activation and proliferation were analyzed through CD25 expression and Cell Trace Violet dilution by flow cytometry (FIG. 8).
Antibodies were tested to assess their efficacy in reducing T cell suppression in the assay described in Example 12. […] T cells activation and proliferation were analyzed through CD25 expression and Cell Trace Violet dilution by flow cytometry.

[2] = biological target: T2, soluble recombinant human CD39 protein (Homo sapiens, UniProt P49961); test: Inhibition of the enzymatic activity of soluble CD39 (Cell Titer Glo, cell-free); assay type: biochemical
T2 construct: made in house; host or cells: CHO cells
T2 sequence (P49961 with tags, fused parts or gaps): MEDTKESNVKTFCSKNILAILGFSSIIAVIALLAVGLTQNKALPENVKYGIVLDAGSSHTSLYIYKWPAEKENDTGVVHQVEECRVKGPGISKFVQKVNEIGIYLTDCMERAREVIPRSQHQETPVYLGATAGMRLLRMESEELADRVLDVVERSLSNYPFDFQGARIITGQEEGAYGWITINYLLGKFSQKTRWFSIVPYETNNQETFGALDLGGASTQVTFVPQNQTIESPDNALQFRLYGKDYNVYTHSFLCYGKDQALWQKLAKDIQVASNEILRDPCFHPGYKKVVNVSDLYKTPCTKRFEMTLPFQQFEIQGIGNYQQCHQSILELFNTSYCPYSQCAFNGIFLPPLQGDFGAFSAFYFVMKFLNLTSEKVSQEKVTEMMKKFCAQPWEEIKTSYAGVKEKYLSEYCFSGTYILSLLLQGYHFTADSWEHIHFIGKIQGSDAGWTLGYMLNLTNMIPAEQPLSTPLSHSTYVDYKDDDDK
Procedure: The inhibition by antibodies of the enzymatic activity of soluble CD39 protein produced was evaluated using Cell Titer GIo™ (Promega, reference G7571) that allows assessment of ATP hydrolysis through use of a reagent that generates a luminescent signal proportional to the amount of ATP present. In this way, inhibition of the soluble-CD39-meidated ATP hydrolysis can be assessed. Briefly, dose ranges of anti-CD39 antibodies from 100 μg/ml to […] were incubated with 400 ng/ml of soluble recombinant human CD39 protein having the amino acid sequence described in the Methods section (SEQ ID NO: 44), for 1 h at 37° C. 20 μM ATP was added to the plates for 30 additional minutes at 37° C. before addition of CTG (Cell Titer Glo) reagent. Emitted light was quantified using an Enspire™ luminometer after a short incubation period of 5 min in the dark. Anti-CD39 antibody efficacy was determined by comparing emitted light in presence of antibody with ATP alone (maximal light emission) and ATP together with soluble CD39 protein (minimal light emission).

I-394: anti-CD39 antibody, VH SEQ ID NO: 6, VL SEQ ID NO: 7, human IgG1 Fc with L234A/L235E/G237A/A330S/P331S
binding to CD39-L3 in ELISA [1]: not to any of the isoforms CD39-L1, -L2, -L3 or -L4
T cells proliferation and activation in MLR (CD25, Cell Trace Violet dilution) (allogenic CD4 T cells): resulted in higher T cells proliferation and activation
inhibition maximum, soluble CD39 [2]: 74.9%
potency ranking for inhibition of soluble CD39 ([2]; FIG. 2B, comparison of BY40, I-394, I-395, I-396): greatest potency
inhibition of the enzymatic (ATPase) activity of soluble CD39 protein ([2]; qualitative): strong inhibition of the enzymatic activity of soluble CD39; also recorded: inhibits the enzymatic activity of soluble CD39 protein
